# Reference: patent publication US9308238B2, “Compositions and methods for modulating EMT and uses thereof” (Whitehead Institute for Biomedical Research, priority 2010, dated 2016)
# B1: SFRP1: Recombinant human SFRP1 protein (R&D Systems), secreted decoy receptor binding canonical and non-canonical Wnt ligands (protein, UniProt Q8N474 32-314, looked up)
# Secreted frizzled-related …: SEYDYVSFQSDIGPYQSGRFYTKPPQCVDIPADLRLCHNVGYKKMVLPNLLEHETMAEVKQQASSWVPLLNKNCHAGTQVFLCSLFAPVCLDRPIYPCRWLCEAVRDSCEPVMQFFGFYWPEMLKCDKFPEGDVCIAMTPPNATEASKPQGTTVCPPCDNELKSEAIIEHLCASEFALRMKIKEVKKENGDKKIVPKKKKPLKLGPIKKKDLKKLVLYLKNGADCPCHQLDNLSHHFLIMGRKVKSQYLLTAIHKWDKKNKEFKNFMKKMKNHECPTFQSVFK
# B2: BMP4: Recombinant BMP4 protein obtained from Stemgent (protein, UniProt P12644 293-408, looked up)
# Bone morphogenetic protein 4: SPKHHSQRARKKNKNCRRHSLYVDFSDVGWNDWIVAPPGYQAFYCHGDCPFPLADHLNSTNHAIVQTLVNSVNSSIPKACCVPTELSAISMLYLDEYDKVVLKNYQEMVVEGCGCR
# Tests used:
# Format in all cases: cell-based, human
# HTwist and MSP cells = experiment: Boyden chamber migration assay, HTwist and MSP cells
# Procedure: FIGS. 3A-3E. Autocrine Signaling controls migration and mammosphere formation.
# FIGS. 10A-10E. […] (FIG. 10C) Mammosphere assay: HTwist cells were treated daily during mammosphere formation (5 days) with proteins as described in (B); *control vs. single treatment, p<1×10^−5, **single vs. double-treatment, p<0.01, n(mammospheres)/1000 cells, n=6, (FIG. 10D) Migration Assay: HTwist and MSP cells were seeded into Boyden Chambers in the presence of TGF-beta Receptor I inhibitors A83-01 and SB431542 (SB43, both at 10 μM). (FIG. 10E) Mammosphere Assay: HTwist and MSP were treated daily during mammosphere formation (5 days) with BMP4 (0.5 μg/ml), SB431542 (10 μM) or a combination of both, n(mammospheres)/1000 cells, n=6.
# Migration and invasion assays. For migration assays, 2×10^4 cells were seeded into 24-well cell culture inserts with 8-μm pores (Boyden Chambers, BD Falcon). For invasion assays, matrigel-coated inserts (BD Falcon) were used. After 12-48 hr, the cells on the upper surface of the filters were removed with a cotton swab. For visualization, cells on lower filter surfaces were fixed and stained with a Diff-Quick staining kit (Dade Behring).
# HTwist cells = experiment: Mammosphere assay, HTwist cells; settings: for reduction in sphere-forming efficiency, primary mammosphere formation: single vs combined proteins, daily for 5 days (FIG. 10C)
# Procedure: FIGS. 10A-10E. […] (FIG. 10E) Mammosphere Assay: HTwist and MSP were treated daily during mammosphere formation (5 days) with BMP4 (0.5 μg/ml), SB431542 (10 μM) or a combination of both, n(mammospheres)/1000 cells, n=6.
# Mammosphere and tumorsphere assay. Assays were performed as previously described with modifications (Dontu et al., 2003): 1000 cells/well were seeded in 96-well ultra-low adhesion plates (Corning) in MEGM medium containing 1.3% methylcellulose (Stem Cell Technologies) supplemented with 20 ng/ml EGF, 10 ng/ml bFGF (both Sigma) and B27 (Gibco). Primary spheres were dissociated by trypsinization and replated for secondary sphere formation after a period of 5-7 days.
# [1] = test system: MSP-RAS primary tumorspheres; experiment: Flow cytometry of CD44/CD24 in MSP-RAS primary tumorspheres; settings: control tumorspheres 6.4%
# Procedure: FIGS. 4A-4G. Autocrine Signaling controls tumorigenicity and metastasis of MSP-RAS cells. (FIG. 4A) Migration assay: RAS-transformed MSP (MSP-RAS) were seeded in Boyden Chamber migration assays and recombinant SFRP1 (1 μg/ml) and BMP4 protein (0.5 μg/ml) were added; *control vs. single treatment, p<1×10^−8, **single vs. double treatment with SFRP1 and BMP4 (S+B), p<1×10^−4, n=3. […] (FIG. 4E) Lung metastasis: fluorescence microscopy images of the major left lung lobe showing GFP-expressing metastatic nodules and quantification of the number of lung surface metastases; *control vs. SFRP1 treatment, p<0.05, **SFRP1 vs. BMP4 or double treatment (S+B), p<0.05, n=5 mice/group. (FIG. 4F) Liver metastasis: fluorescence microscopy images of the liver surface showing GFP-expressing micro-metastatic nodules after implantation of cells as described in (D) and quantification: 5 fields of liver surface were counted per mouse, *control vs. single treatment, p<0.05, **single vs. double treatment (S+B), p<0.05, n=5 mice/group. […]
# Fluorescent activated cell sorting (FACS) and flow cytometry. […] Samples were sorted on a BD FACSAria SORP and analyzed on a BD LSRII using BD FACSDiva Software (BD Biosciences).
Molecule,reduction of migration (HTwist and MSP cells; at the highest concentration) [fold],reduction of primary mammosphere number (HTwist cells; added daily for 5 days (FIG. 3D)) [%],"reduction in sphere-forming efficiency, primary mammosphere formation (HTwist cells) [%]",reduction of secondary sphere formation (HTwist cells; treated during primary sphere formation only) [%],CD24-positive cells in primary tumorspheres [1] [%],maximum reduction of migration (HTwist and MSP cells; HTwist or MSP cells) [fold]
B1,20,50,40,90,40,
B2,,,64,,40,≤ 2
